Data: the supplement of paper PMC7125110
± gives the standard error. For some of these results: This sample holds only a part of the variants without activity.

B1: glmS ribozyme (parent)
chain: AUAAAAGCGCCAGAACUACAGAAAUGUAGUUGACGAGGAGGAGGUUUAUCGAAUUUUCGGCGGAUGCCUCCAAA

How the values were obtained:
Details in all cases: with glucosamine-6-phosphate
[1] = variants of: B1; experiment: kcat; higher = faster cleavage; RNA array
Summary of the method: (§1)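 The measurements used barcoded ribozyme variants on sequenced MiSeq chips, transcribed in situ by E. coli RNA polymerase and tracked at 37 °C with a hybridised Cy3 probe. Glucosamine-6-phosphate, 40 μM to 10 mM in HEPES/KCl/Mg(OAc)2 buffer, was flowed in while tiles were imaged over ~14 h. Baseline-normalised signals, also normalised to non-cleaving reference variants, gave per-tile medians that were fit to one- or two-exponential decays for kobs. kcat and KM resulted from weighted Michaelis–Menten fits across concentrations.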

[2] = variants of: B1; experiment: self-cleavage kobs at 40 uM GlcN6P; higher = faster cleavage; RNA array
Summary of the method: as §1

[3] = variants of: B1; experiment: self-cleavage kobs at 160 uM GlcN6P; higher = faster cleavage; RNA array
Summary of the method: as §1

[4] = variants of: B1; experiment: self-cleavage kobs at 640 uM GlcN6P; higher = faster cleavage; RNA array
Summary of the method: as §1

[5] = variants of: B1; experiment: self-cleavage kobs at 10000 uM GlcN6P; higher = faster cleavage; RNA array
Summary of the method: as §1

[6] = variants of: B1; experiment: self-cleavage kobs at 2500 uM GlcN6P; higher = faster cleavage; RNA array
Summary of the method: as §1

[7] = variants of: B1; experiment: KM; higher = weaker cofactor use; RNA array
Summary of the method: as §1

Row | Variant | kcat [1] [s⁻¹] | self-cleavage kobs at 40 uM GlcN6P [2] [s⁻¹] | self-cleavage kobs at 160 uM GlcN6P [3] [s⁻¹] | self-cleavage kobs at 640 uM GlcN6P [4] [s⁻¹] | self-cleavage kobs at 10000 uM GlcN6P [5] [s⁻¹] | self-cleavage kobs at 2500 uM GlcN6P [6] [s⁻¹] | KM [7] [µM]
1 | AUAAAAGCGCCUGAACUACAGAAAUGUAGUUGACGAGGAGGGGGUUUAUCGAAUUUUCGGCGGAUGCCUCCAAA [A12U A42G] | 0.0985 ± 0.045 | 0.00296 ± 0.00037 | 0.00676 ± 0.0033 | 0.0249 ± 0.006 | 0.116 ± 0.044 |  | 
2 | AUAAAAGCGCCAGAACUACAGAAAUGUAGUUGACGAGGAGGAGGUGAAUCGAAUUUUCGGCGGAUGCCUCCAAA [U46G U47A] | 0.0123 ± 0.0053 |  | 0.00128 ± 0.00029 | 0.00231 ± 0.00046 | 0.0106 ± 0.0026 | 0.00836 ± 0.0038 | 
3 | AUAAAAGCGCUAGAACUACAGAAAUGUAGUUGACGAGGAUGAGGUUUAUCGAAUUUUCGGCGGAUGCCUUCAAA [C11U G40U C70U] | 0.000108 ± 1.1e-06 |  |  |  | 9.73e-05 ± 2e-05 | 7.62e-05 ± 2.5e-05 | 1100 ± 48
4 | AUAAAAGCGCCAGAACUACAGAAAUGUAGUCGACGAGGAUGAGGUUUAUCGAAUUUUCGGCGGAUGCCUCCAAA [U31C G40U] | 0.000615 ± 0.00011 |  | 4.05e-05 ± 1.4e-05 | 0.000122 ± 2.1e-05 | 0.000515 ± 6.3e-05 | 0.000236 ± 4.1e-05 | 2870 ± 920
5 | AUAAAAGCGCCAGAACUACAGAAAUGUAGUUGAGGAGUAGGAGGUUUAUCGAAUUUUCGGCGGAUGCCUCCAAA [C34G G38U] | < 1e-05 |  | < 1e-05 |  |  |  | 
6 | AUAAAAGCGCCAGAACUACAGAAAUGUAGUUGACGAGGAGGAGGUUUAUCGAAUUUUCGGCGGACGUCUCCAAA [U65C C67U] | 0.000111 ± 9.1e-06 |  |  |  | 9.15e-05 ± 1e-05 | 7.62e-05 ± 2.6e-05 | 2040 ± 650
7 | AUAAAAGCGCCAGAUCUACAGAAAUGUAGUUGACGACGAGGAGGUUUAUCGAAUUUUCGGCGGAUGCCUGCAAA [A15U G37C C70G] | 2.75e-05 ± 1.1e-05 |  |  |  |  |  | 
8 | AUAAAAGCGCCAGAACUACAGAAAUGUAGUUGACGAGGAGGAGGUUUGUCGAAUUUUCGGCGGAUGCAUCCAAA [A48G C68A] | 1.35e-05 ± 5e-06 | < 1e-05 |  |  |  |  | 
9 | AUAAAAGCGCCAGAACUACAGAAAUGUAGGUGACGAGGAGGAGGCUUAUCGAAUUUUCGGCGGAUGCCUCCAAA [U30G U45C] | 0.000451 ± 9.8e-05 |  |  | 0.000201 ± 8.3e-05 | 0.000435 ± 9.4e-05 | 0.00024 ± 7.8e-05 | 
10 | AUAAAAGCGCCAGAACUACAGAAAUGUAGUUGACGAGGACGUGGUUUAUCGAAUUUUCGGCGGAUGCCUCCAAA [G40C A42U] | 3.99e-05 ± 4.6e-06 |  |  |  | 3.64e-05 ± 1.1e-05 | 4.68e-05 ± 2.2e-05 | 
11 | AUAAAAGCGCCACAACUACAGAAAUGUAGUGGACGAGGAGGAGGUUUAUCGAAUUUUCGGCGGAUGCCUUCAAA [G13C U31G C70U] | 0.000159 ± 3.6e-05 |  |  | 4.2e-05 ± 1.9e-05 | 0.000131 ± 2.7e-05 | 0.000148 ± 3.9e-05 | 
12 | AUAAAAGCGCCAGAACUACAGAAAUGUAGUUAACGAGGAGGAGGUUUAUCGAAUUUUCGGCGGAUUCCUCCAAA [G32A G66U] | 0.000161 ± 4.6e-05 |  |  | 4.96e-05 ± 1.7e-05 | 0.000118 ± 1.6e-05 | 5.52e-05 ± 1.1e-05 | 
13 | AUAAAAGCGCCAGAACUACAGAAAUGUAGUUGACGAGGAGGAGGUUUAUCGAACUUUCGGCGGAUGCCUCAAAA [U54C C71A] | 0.00379 ± 0.00088 | 0.000112 ± 1.4e-05 | 0.000296 ± 4.1e-05 | 0.00133 ± 0.00019 | 0.0039 ± 0.00049 | 0.00192 ± 0.00026 | 1580 ± 530
14 | AUAAAAGCGUCAGAGCUACAGAAAUGUAGUUGACGAGGAGGAGGUUUAUCGAAUUUUCGGCGGAUGCUUCCAAA [C10U A15G C68U] | 1.81e-05 ± 6.2e-06 |  |  |  |  |  | 
15 | AUAAAAGCGCCAGAAGUACAGAAAUGUAGUUGACGAGGAGGAGGUUUAUCGAAUUUUCGGCGGCUGCCUCCAAA [C16G A64C] | 2.1e-05 ± 1.7e-06 |  |  |  |  |  | 9060 ± 1500
16 | AUAAAAGCGCCAGAACUACAGAAAUGUAGUUAACGAAGAGGAGGUUUAUCGAAUUUUCGGCGGAUGCCUCCAAA [G32A G37A] | 0.00051 ± 0.00011 |  |  |  | 0.000143 ± 1.8e-05 | 4.62e-05 ± 1e-05 | 
17 | AUAAAAGCGCCAGACAUACAGAAAUGUAGUUGACGAUGAGGAGGUUUAUCGAAUUUUCGGCGGAUGCCUUGAAA [A15C C16A G37U C70U C71G] | 1.25e-05 ± 2.5e-06 |  |  |  |  |  | 
18 | AUAAAAGCGCCAGAACUACAGAAAUGUAGUUGACGACGAGGAGGUUUAUCGAGUUUUCGGCGGAUGCCUCCAAA [G37C A53G] | 3.88e-05 ± 1.1e-05 | < 1e-05 |  |  | 3.11e-05 ± 1.1e-05 | 5.73e-05 ± 1.6e-05 | 
19 | AUAAAAGCGCCAGAACUACAGAAAUGUAGUUGACGAGGAGGAGGUUUAUCGAGUUUUCGGCGGCUGCCUCCAAA [A53G A64C] | 0.000207 ± 2.2e-05 |  |  | 5.95e-05 ± 9.6e-06 | 0.000181 ± 1.9e-05 | 0.000109 ± 1.4e-05 | 1870 ± 470
20 | AUAAAAGCGCCAGAACUACAGAAAUGUAGUUGACGAGGAGGAGGUUUAUCGAAGUUUCGGCGGAUACCUCCAAA [U54G G66A] | 0.0134 ± 0.0022 | 0.000427 ± 4.8e-05 | 0.00123 ± 0.00022 | 0.00385 ± 0.00097 | 0.0132 ± 0.0016 | 0.00659 ± 0.0015 | 1380 ± 320
21 | AUAAAAGCGCCAGAACUACAGAAAUGUAGUUGACGAGGAGGAGGUUUAUCGAAUUUUCGGAGGGUGCCUCCAAA [C61A A64G] | < 1e-05 | < 1e-05 |  |  |  |  | 
